Target: T1, HERC2 (hect domain and RCC-like domain 2) (human, UniProt O95714 1-4834)
T1 construct: Endogenous protein of 293T or HeLa cells, found in BRCA1 immune precipitates from cell lysates; also called endogenous HERC2
Assay: immunoprecipitation with anti-BRCA1 antibody, synchronized HeLa cells
Description: For the immunoprecipitation of a BRCA1 complex, the cell lysate was allowed to react with an anti-BRCA1 antibody at 4° C. for 1 hour. Thereafter, a precipitation reaction was carried out at 4° C. for 1 hour using Protein A and G sepharose (Invitrogen). The precipitate was washed with a 0.5% NP-40 buffer 3 times, and it was then re-suspended in an SDS sample buffer (50 mM Tris-HCl (pH6.8), 0.2% bromophenol blue, 10% glycerol, 2% SDS, and 100 mM DTT). The suspension was boiled for 3 minutes. As a peptide competition control, an equal amount of blocking peptide was added.

T1 sequence (O95714 other isoform, or with tags, fused parts or gaps limits assumed): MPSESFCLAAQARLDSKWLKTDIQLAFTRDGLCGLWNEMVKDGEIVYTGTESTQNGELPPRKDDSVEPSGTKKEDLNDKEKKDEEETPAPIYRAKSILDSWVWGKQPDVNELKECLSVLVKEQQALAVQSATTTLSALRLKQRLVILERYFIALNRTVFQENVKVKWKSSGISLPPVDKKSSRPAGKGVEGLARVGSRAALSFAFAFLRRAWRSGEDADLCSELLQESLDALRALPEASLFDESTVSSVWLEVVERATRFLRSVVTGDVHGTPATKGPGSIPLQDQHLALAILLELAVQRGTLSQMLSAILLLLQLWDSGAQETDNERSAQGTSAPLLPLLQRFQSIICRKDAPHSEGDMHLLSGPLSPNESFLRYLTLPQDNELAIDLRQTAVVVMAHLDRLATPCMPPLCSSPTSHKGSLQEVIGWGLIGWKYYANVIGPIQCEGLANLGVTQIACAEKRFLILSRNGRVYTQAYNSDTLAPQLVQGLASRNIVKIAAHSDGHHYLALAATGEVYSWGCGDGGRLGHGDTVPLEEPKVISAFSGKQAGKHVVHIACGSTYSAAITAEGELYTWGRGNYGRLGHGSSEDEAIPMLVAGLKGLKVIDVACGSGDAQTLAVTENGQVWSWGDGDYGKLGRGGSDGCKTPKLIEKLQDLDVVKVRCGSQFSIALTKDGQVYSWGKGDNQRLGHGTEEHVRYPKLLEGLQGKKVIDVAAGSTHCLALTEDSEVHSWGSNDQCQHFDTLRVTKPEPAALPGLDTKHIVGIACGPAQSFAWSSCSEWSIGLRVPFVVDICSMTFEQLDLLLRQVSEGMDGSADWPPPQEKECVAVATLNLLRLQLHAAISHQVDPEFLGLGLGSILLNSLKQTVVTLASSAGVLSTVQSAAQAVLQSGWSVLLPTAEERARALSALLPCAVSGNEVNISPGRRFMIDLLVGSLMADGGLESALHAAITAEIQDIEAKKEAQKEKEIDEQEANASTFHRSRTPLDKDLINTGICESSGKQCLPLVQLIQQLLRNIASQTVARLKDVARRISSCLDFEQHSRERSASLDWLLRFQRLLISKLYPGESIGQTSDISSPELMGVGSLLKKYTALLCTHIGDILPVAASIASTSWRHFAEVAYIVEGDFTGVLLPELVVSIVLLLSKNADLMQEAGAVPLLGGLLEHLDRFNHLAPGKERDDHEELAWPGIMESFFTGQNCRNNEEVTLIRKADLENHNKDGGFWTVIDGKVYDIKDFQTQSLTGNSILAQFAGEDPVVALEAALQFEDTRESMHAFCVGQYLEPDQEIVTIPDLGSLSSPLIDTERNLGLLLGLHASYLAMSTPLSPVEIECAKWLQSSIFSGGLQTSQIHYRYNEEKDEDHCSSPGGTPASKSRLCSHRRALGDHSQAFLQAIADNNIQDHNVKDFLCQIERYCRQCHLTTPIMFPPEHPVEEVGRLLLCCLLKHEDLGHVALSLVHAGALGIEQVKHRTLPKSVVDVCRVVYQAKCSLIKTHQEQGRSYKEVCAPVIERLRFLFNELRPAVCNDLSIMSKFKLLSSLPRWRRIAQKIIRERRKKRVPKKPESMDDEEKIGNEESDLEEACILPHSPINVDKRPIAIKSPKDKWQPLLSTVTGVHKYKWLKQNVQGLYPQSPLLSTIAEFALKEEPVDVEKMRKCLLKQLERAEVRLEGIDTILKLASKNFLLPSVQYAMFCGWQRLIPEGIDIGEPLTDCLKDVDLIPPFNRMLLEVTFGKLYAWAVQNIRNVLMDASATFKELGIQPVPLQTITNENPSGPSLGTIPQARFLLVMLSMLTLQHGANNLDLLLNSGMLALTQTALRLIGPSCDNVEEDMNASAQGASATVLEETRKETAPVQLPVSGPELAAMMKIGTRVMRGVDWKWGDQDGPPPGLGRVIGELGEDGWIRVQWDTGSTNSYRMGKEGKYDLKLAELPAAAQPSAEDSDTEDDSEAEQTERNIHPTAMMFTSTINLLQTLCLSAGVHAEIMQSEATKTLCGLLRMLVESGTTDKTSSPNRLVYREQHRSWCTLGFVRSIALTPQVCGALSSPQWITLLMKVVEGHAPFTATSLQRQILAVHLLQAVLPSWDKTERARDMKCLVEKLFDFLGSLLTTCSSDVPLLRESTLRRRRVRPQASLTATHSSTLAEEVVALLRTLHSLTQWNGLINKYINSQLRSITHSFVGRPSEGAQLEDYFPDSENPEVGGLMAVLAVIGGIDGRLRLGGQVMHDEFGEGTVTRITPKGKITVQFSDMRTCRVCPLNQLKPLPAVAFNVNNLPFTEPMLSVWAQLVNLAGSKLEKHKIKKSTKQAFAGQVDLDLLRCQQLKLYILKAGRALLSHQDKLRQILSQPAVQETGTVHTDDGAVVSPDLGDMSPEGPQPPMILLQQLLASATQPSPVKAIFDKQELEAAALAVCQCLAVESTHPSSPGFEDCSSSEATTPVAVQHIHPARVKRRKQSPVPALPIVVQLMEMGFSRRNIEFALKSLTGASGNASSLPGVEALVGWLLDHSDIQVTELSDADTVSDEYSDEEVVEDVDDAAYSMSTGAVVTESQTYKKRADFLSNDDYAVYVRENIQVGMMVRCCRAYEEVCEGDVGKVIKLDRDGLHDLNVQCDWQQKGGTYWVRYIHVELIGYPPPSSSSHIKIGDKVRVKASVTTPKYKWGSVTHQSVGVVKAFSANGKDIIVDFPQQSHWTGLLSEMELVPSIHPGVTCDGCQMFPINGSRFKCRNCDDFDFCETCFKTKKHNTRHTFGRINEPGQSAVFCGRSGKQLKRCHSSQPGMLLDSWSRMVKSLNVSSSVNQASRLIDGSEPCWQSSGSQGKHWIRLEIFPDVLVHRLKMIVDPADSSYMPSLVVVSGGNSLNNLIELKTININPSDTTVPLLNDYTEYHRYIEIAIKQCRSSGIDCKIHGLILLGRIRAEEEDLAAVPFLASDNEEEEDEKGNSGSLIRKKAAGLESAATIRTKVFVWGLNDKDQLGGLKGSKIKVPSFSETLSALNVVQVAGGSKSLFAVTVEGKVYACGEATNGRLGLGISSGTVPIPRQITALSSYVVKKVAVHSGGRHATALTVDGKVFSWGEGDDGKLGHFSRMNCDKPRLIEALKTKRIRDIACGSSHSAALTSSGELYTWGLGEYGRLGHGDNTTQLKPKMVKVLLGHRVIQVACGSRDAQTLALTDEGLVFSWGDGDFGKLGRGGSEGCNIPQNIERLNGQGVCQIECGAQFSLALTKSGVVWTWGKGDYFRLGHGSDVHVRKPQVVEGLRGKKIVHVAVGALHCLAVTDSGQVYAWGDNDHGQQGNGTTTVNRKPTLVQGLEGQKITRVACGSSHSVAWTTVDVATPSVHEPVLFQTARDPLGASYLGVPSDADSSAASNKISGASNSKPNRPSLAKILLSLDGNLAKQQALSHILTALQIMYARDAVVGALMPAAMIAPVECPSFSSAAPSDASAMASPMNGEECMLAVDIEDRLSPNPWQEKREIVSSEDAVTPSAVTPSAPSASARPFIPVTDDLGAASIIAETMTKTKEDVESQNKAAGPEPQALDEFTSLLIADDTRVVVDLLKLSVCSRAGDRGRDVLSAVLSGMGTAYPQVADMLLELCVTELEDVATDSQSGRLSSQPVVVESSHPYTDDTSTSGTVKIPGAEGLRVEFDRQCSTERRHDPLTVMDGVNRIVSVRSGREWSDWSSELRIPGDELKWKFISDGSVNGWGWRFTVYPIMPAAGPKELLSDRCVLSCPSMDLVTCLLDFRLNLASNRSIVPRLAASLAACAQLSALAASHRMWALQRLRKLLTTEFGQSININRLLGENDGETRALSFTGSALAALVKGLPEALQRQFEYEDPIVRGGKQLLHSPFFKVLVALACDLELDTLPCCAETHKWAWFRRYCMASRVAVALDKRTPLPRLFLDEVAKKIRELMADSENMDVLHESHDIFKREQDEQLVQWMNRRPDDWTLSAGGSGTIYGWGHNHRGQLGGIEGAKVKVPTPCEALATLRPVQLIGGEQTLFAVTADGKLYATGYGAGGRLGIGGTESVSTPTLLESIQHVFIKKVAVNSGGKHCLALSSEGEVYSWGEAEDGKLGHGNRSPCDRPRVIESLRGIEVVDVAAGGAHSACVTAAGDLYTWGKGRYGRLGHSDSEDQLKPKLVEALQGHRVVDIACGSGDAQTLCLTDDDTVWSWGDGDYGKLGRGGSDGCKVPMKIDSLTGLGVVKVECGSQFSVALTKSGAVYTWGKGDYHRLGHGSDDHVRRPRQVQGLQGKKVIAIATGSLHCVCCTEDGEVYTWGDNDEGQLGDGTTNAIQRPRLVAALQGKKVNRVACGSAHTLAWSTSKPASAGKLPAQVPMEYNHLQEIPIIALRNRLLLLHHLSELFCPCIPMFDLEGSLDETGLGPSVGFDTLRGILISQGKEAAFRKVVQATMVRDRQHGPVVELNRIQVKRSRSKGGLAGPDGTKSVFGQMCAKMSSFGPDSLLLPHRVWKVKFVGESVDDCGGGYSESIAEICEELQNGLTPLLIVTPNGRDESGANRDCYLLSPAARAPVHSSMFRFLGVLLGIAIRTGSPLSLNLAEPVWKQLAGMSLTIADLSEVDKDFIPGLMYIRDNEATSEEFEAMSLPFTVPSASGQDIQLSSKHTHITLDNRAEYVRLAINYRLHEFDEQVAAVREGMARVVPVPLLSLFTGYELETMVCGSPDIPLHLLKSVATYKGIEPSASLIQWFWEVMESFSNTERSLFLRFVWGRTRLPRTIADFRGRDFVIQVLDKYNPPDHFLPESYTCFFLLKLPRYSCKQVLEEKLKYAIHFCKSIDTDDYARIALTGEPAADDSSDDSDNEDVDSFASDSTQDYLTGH

- binding result: binds
B1: BRCA1 (endogenous) (other, UniProt P38398 1-1863, looked up)
chain: MDLSALRVEEVQNVINAMQKILECPICLELIKEPVSTKCDHIFCKFCMLKLLNQKKGPSQCPLCKNDITKRSLQESTRFSQLVEELLKIICAFQLDTGLEYANSYNFAKKENNSPEHLKDEVSIIQSMGYRNRAKRLLQSEPENPSLQETSLSVQLSNLGTVRTLRTKQRIQPQKTSVYIELGSDSSEDTVNKATYCSVGDQELLQITPQGTRDEISLDSAKKAACEFSETDVTNTEHHQPSNNDLNTTEKRAAERHPEKYQGSSVSNLHVEPCGTNTHASSLQHENSSLLLTKDRMNVEKAEFCNKSKQPGLARSQHNRWAGSKETCNDRRTPSTEKKVDLNADPLCERKEWNKQKLPCSENPRDTEDVPWITLNSSIQKVNEWFSRSDELLGSDDSHDGESESNAKVADVLDVLNEVDEYSGSSEKIDLLASDPHEALICKSERVHSKSVESNIEDKIFGKTYRKKASLPNLSHVTENLIIGAFVTEPQIIQERPLTNKLKRKRRPTSGLHPEDFIKKADLAVQKTPEMINQGTNQTEQNGQVMNITNSGHENKTKGDSIQNEKNPNPIESLEKESAFKTKAEPISSSISNMELELNIHNSKAPKKNRLRRKSSTRHIHALELVVSRNLSPPNCTELQIDSCSSSEEIKKKKYNQMPVRHSRNLQLMEGKEPATGAKKSNKPNEQTSKRHDSDTFPELKLTNAPGSFTKCSNTSELKEFVNPSLPREEKEEKLETVKVSNNAEDPKDLMLSGERVLQTERSVESSSISLVPGTDYGTQESISLLEVSTLGKAKTEPNKCVSQCAAFENPKGLIHGCSKDNRNDTEGFKYPLGHEVNHSRETSIEMEESELDAQYLQNTFKVSKRQSFAPFSNPGNAEEECATFSAHSGSLKKQSPKVTFECEQKEENQGKNESNIKPVQTVNITAGFPVVGQKDKPVDNAKCSIKGGSRFCLSSQFRGNETGLITPNKHGLLQNPYRIPPLFPIKSFVKTKCKKNLLEENFEEHSMSPEREMGNENIPSTVSTISRNNIRENVFKEASSSNINEVGSSTNEVGSSINEIGSSDENIQAELGRNRGPKLNAMLRLGVLQPEVYKQSLPGSNCKHPEIKKQEYEEVVQTVNTDFSPYLISDNLEQPMGSSHASQVCSETPDDLLDDGEIKEDTSFAENDIKESSAVFSKSVQKGELSRSPSPFTHTHLAQGYRRGAKKLESSEENLSSEDEELPCFQHLLFGKVNNIPSQSTRHSTVATECLSKNTEENLLSLKNSLNDCSNQVILAKASQEHHLSEETKCSASLFSSQCSELEDLTANTNTQDPFLIGSSKQMRHQSESQGVGLSDKELVSDDEERGTGLEENNQEEQSMDSNLGEAASGCESETSVSEDCSGLSSQSDILTTQQRDTMQHNLIKLQQEMAELEAVLEQHGSQPSNSYPSIISDSSALEDLRNPEQSTSEKAVLTSQKSSEYPISQNPEGLSADKFEVSADSSTSKNKEPGVERSSPSKCPSLDDRWYMHSCSGSLQNRNYPSQEELIKVVDVEEQQLEESGPHDLTETSYLPRQDLEGTPYLESGISLFSDDPESDPSEDRAPESARVGNIPSSTSALKVPQLKVAESAQSPAAAHTTDTAGYNAMEESVSREKPELTASTERVNKRMSMVVSGLTPEEFMLVYKFARKHHITLTNLITEETTHVVMKTDAEFVCERTLKYFLGIAGGKWVVSYFWVTQSIKERKMLNEHDFEVRGDVVNGRNHQGPKRARESQDRKIFRGLEICCYGPFTNMPTDQLEWMVQLCGASVVKELSSFTLGTGVHPIVVVQPDAWTEDNGFHAIGQMCEAPVVTREWVLDSVALYQCQELDTYLIPQIPHSHY
notes: Endogenous protein, precipitated from cell lysate with an anti-BRCA1 antibody; also called endogenous BRCA1
